Experimental data taken from publication PMC9516341.

Target: Flag-tagged ARNO (p3XFLAG-2-mCytohesin-2)
Experiment: co-immunoprecipitation (anti-FLAG M2 IP of FLAG-ARNO, immunoblot for FE65, quantified)
Conditions: transfected cell lysate; three independent experiments; unpaired t-test, *p < 0.001; parent: 1

ratio to parent: 0.34
Substance: Myc-tagged FE65 (from UniProt O00213) R605A
